Assay: Safety of DMUC5754A in patients: related adverse events, DLT, MTD/RP2D (NCI CTCAE v4.0)
Type: in vivo, human
Conditions: for On study PN = No, patients n (%) / On study PN = Yes, patients n (%) / Median time to onset of first PN on study: q1w dosing
Description: This multicenter, open-label, dose-escalation study was designed to identify the recommended Phase II dose (RP2D) of DMUC5754A in patients with platinum-resistant OC or unresectable pancreatic cancer. In the single-agent dose escalation stage utilizing a 3+3 enrollment scheme, patients were given intravenous DMUC5754A (Genentech Inc.) 0.3-3.2 mg/kg every 3 weeks (q3w) to evaluate the safety, tolerability, and pharmacokinetics of DMUC5754A. Following determination of the maximum tolerated dose (MTD), dose-expansion cohorts were enrolled at the RP2D of 2.4 mg/kg to further characterize the safety and preliminary clinical efficacy of DMUC5754A.
Dosing on a weekly (qlw) schedule was also evaluated at the RP2D, employing a 3+3 design to determine the MTD of weekly dosing, followed by a cohort expansion to further characterize the safety and activity of q1w dosing.
Safety was evaluated according to NCI CTCAE v4.0. […] The maximum tolerated dose (MTD) was defined as the dose at which ≤1 of 6 patients at an assigned dose with protocol-defined DLT. Patients who experienced a DLT or adverse event (AE) meeting DLT criteria after the DLT assessment window were allowed to delay dosing for up to 2 weeks or undergo a dose reduction.

[1] = q1w patients, over all dose levels

B1: DMUC5754A: antibody-drug conjugate: humanized IgG1 anti-MUC16 monoclonal antibody and MMAE, linked through protease labile linker maleimidocaproyl-valine-citrulline-p-aminobenzyloxycarbonyl (conjugate, chains of the INN, looked up)
VH: EVQLVESGGGLVQPGGSLRLSCAASGYSITNDYAWNWVRQAPGKGLEWVGYISYSGYTTYNPSLKSRFTISRDTSKNTLYLQMNSLRAEDTAVYYCARWTSGLDYWGQGTLVTVSS
VL: DIQMTQSPSSLSASVGDRVTITCKASDLIHNWLAWYQQKPGKAPKLLIYGATSLETGVPSRFSGSGSGTDFTLTISSLQPEDFATYYCQQYWTTPFTFGQGTKVEIK
modifications: MMAE via mc-vc-PABC linker
protocol-defined DLTs (3.2 mg/kg q3w, OC, 1 Grade 4 hypocalcaemia and 1 Grade 3 uric acid increase, in 2 of 3 DLT-evaluable patients): 2 | Alopecia (related AE), patients n (%) (q1w 0.8 mg/kg (n = 3)): 0 | Anemia (related AE), patients n (%) (q1w 0.8 mg/kg (n = 3)): 1 (33.3%) | Any adverse events (related), patients n (%) (q1w 0.8 mg/kg (n = 3)): 2 (66.7%) | Arthralgia (related AE), patients n (%) (q1w 0.8 mg/kg (n = 3)): 0 | Aspartate aminotransferase increased (related AE), patients n (%) (q1w 0.8 mg/kg (n = 3)): 0 | Constipation (related AE), patients n (%) (q1w 0.8 mg/kg (n = 3)): 1 (33.3%) | Decreased appetite (related AE), patients n (%) (q1w 0.8 mg/kg (n = 3)): 0 | Diarrhea (related AE), patients n (%) (q1w 0.8 mg/kg (n = 3)): 0 | Fatigue (related AE), patients n (%) (q1w 0.8 mg/kg (n = 3)): 0 | Headache (related AE), patients n (%) (q1w 0.8 mg/kg (n = 3)): 0 | Hypomagnesaemia (related AE), patients n (%) (q1w 0.8 mg/kg (n = 3)): 1 (33.3%) | Hyponatremia (related AE), patients n (%) (q1w 0.8 mg/kg (n = 3)): 0 | Nausea (related AE), patients n (%) (q1w 0.8 mg/kg (n = 3)): 0 | Neutropenia (related AE), patients n (%) (q1w 0.8 mg/kg (n = 3)): 1 (33.3%) | Peripheral neuropathy (related AE), patients n (%) (q1w 0.8 mg/kg (n = 3)): 0 | Vomiting (related AE), patients n (%) (q1w 0.8 mg/kg (n = 3)): 0 | Alopecia (related AE), patients n (%) (q1w 1.1 mg/kg (n = 7)): 1 (14.3%) | Anemia (related AE), patients n (%) (q1w 1.1 mg/kg (n = 7)): 3 (42.9%) | Any adverse events (related), patients n (%) (q1w 1.1 mg/kg (n = 7)): 7 (100.0%) | Arthralgia (related AE), patients n (%) (q1w 1.1 mg/kg (n = 7)): 2 (28.6%) | Aspartate aminotransferase increased (related AE), patients n (%) (q1w 1.1 mg/kg (n = 7)): 2 (28.6%) | Constipation (related AE), patients n (%) (q1w 1.1 mg/kg (n = 7)): 0 | Decreased appetite (related AE), patients n (%) (q1w 1.1 mg/kg (n = 7)): 1 (14.3%) | Diarrhea (related AE), patients n (%) (q1w 1.1 mg/kg (n = 7)): 3 (42.9%) | Fatigue (related AE), patients n (%) (q1w 1.1 mg/kg (n = 7)): 2 (28.6%) | Headache (related AE), patients n (%) (q1w 1.1 mg/kg (n = 7)): 2 (28.6%) | Hypomagnesaemia (related AE), patients n (%) (q1w 1.1 mg/kg (n = 7)): 2 (28.6%) | Hyponatremia (related AE), patients n (%) (q1w 1.1 mg/kg (n = 7)): 1 (14.3%) | Nausea (related AE), patients n (%) (q1w 1.1 mg/kg (n = 7)): 4 (57.1%) | Neutropenia (related AE), patients n (%) (q1w 1.1 mg/kg (n = 7)): 1 (14.3%) | Peripheral neuropathy (related AE), patients n (%) (q1w 1.1 mg/kg (n = 7)): 1 (14.3%) | Vomiting (related AE), patients n (%) (q1w 1.1 mg/kg (n = 7)): 2 (28.6%) | Alopecia (related AE), patients n (%) (q1w 1.4 mg/kg (n = 7)): 2 (28.6%) | Anemia (related AE), patients n (%) (q1w 1.4 mg/kg (n = 7)): 2 (28.6%) | Any adverse events (related), patients n (%) (q1w 1.4 mg/kg (n = 7)): 5 (71.4%) | Arthralgia (related AE), patients n (%) (q1w 1.4 mg/kg (n = 7)): 1 (14.3%) | Aspartate aminotransferase increased (related AE), patients n (%) (q1w 1.4 mg/kg (n = 7)): 1 (14.3%) | Constipation (related AE), patients n (%) (q1w 1.4 mg/kg (n = 7)): 2 (28.6%) | Decreased appetite (related AE), patients n (%) (q1w 1.4 mg/kg (n = 7)): 3 (42.9%) | Diarrhea (related AE), patients n (%) (q1w 1.4 mg/kg (n = 7)): 0 | Fatigue (related AE), patients n (%) (q1w 1.4 mg/kg (n = 7)): 2 (28.6%) | Headache (related AE), patients n (%) (q1w 1.4 mg/kg (n = 7)): 0 | Hypomagnesaemia (related AE), patients n (%) (q1w 1.4 mg/kg (n = 7)): 0 | Hyponatremia (related AE), patients n (%) (q1w 1.4 mg/kg (n = 7)): 1 (14.3%) | Nausea (related AE), patients n (%) (q1w 1.4 mg/kg (n = 7)): 4 (57.1%) | Neutropenia (related AE), patients n (%) (q1w 1.4 mg/kg (n = 7)): 1 (14.3%) | Peripheral neuropathy (related AE), patients n (%) (q1w 1.4 mg/kg (n = 7)): 2 (28.6%) | Vomiting (related AE), patients n (%) (q1w 1.4 mg/kg (n = 7)): 5 (71.4%) | Alopecia (related AE), patients n (%) (q1w 1.6 mg/kg (n = 6)): 2 (33.3%) | Anemia (related AE), patients n (%) (q1w 1.6 mg/kg (n = 6)): 2 (33.3%) | Any adverse events (related), patients n (%) (q1w 1.6 mg/kg (n = 6)): 6 (100.0%) | Arthralgia (related AE), patients n (%) (q1w 1.6 mg/kg (n = 6)): 0 | Aspartate aminotransferase increased (related AE), patients n (%) (q1w 1.6 mg/kg (n = 6)): 1 (16.7%) | Constipation (related AE), patients n (%) (q1w 1.6 mg/kg (n = 6)): 0 | Decreased appetite (related AE), patients n (%) (q1w 1.6 mg/kg (n = 6)): 1 (16.7%) | Diarrhea (related AE), patients n (%) (q1w 1.6 mg/kg (n = 6)): 2 (33.3%) | Fatigue (related AE), patients n (%) (q1w 1.6 mg/kg (n = 6)): 3 (50.0%) | Headache (related AE), patients n (%) (q1w 1.6 mg/kg (n = 6)): 1 (16.7%) | Hypomagnesaemia (related AE), patients n (%) (q1w 1.6 mg/kg (n = 6)): 2 (33.3%) | Hyponatremia (related AE), patients n (%) (q1w 1.6 mg/kg (n = 6)): 1 (16.7%) | Nausea (related AE), patients n (%) (q1w 1.6 mg/kg (n = 6)): 3 (50.0%) | Neutropenia (related AE), patients n (%) (q1w 1.6 mg/kg (n = 6)): 3 (50.0%) | Peripheral neuropathy (related AE), patients n (%) (q1w 1.6 mg/kg (n = 6)): 1 (16.7%) | Vomiting (related AE), patients n (%) (q1w 1.6 mg/kg (n = 6)): 2 (33.3%) | Alopecia (related AE), patients n (%) (q1w All Patients (n = 23)): 5 (21.7%) | Anemia (related AE), patients n (%) (q1w All Patients (n = 23)): 8 (34.8%) | Any adverse events (related), patients n (%) (q1w All Patients (n = 23)): 20 (87.0%) | Arthralgia (related AE), patients n (%) (q1w All Patients (n = 23)): 3 (13.0%) | Aspartate aminotransferase increased (related AE), patients n (%) (q1w All Patients (n = 23)): 4 (17.4%) | Constipation (related AE), patients n (%) (q1w All Patients (n = 23)): 3 (13.0%) | Decreased appetite (related AE), patients n (%) (q1w All Patients (n = 23)): 5 (21.7%) | Diarrhea (related AE), patients n (%) (q1w All Patients (n = 23)): 5 (21.7%) | Fatigue (related AE), patients n (%) (q1w All Patients (n = 23)): 7 (30.4%) | Headache (related AE), patients n (%) (q1w All Patients (n = 23)): 3 (13.0%) | Hypomagnesaemia (related AE), patients n (%) (q1w All Patients (n = 23)): 5 (21.7%) | Hyponatremia (related AE), patients n (%) (q1w All Patients (n = 23)): 3 (13.0%) | Nausea (related AE), patients n (%) (q1w All Patients (n = 23)): 11 (47.8%) | Neutropenia (related AE), patients n (%) (q1w All Patients (n = 23)): 6 (26.1%) | Vomiting (related AE), patients n (%) (q1w All Patients (n = 23)): 9 (39.1%) | patients with AEs leading to treatment discontinuation (q1w cohorts, 3/23 patients): 13.0% | On study PN = No, patients n (%) (Prior neuropathy = No): 10 (43%) | On study PN = Yes, patients n (%) (Prior neuropathy = No): 2 (9%) | Median time to onset of first PN on study (Prior neuropathy = Yes): 190 days | On study PN = No, patients n (%) (Prior neuropathy = Yes): 9 (39%) | On study PN = Yes, patients n (%) (Prior neuropathy = Yes): 2 (9%) | Median time to onset of first PN on study (Total): 190 days | On study PN = No, patients n (%) (Total): 19 (83%) | On study PN = Yes, patients n (%) (Total): 4 (17%) | Drug-related SAE dehydration, patients (q1w patients): 1 | Drug-related SAE diarrhea, patients (q1w patients): 1 | Drug-related SAE nausea, patients (q1w patients): 1 | Drug-related SAE posterior reversible encephalopathy syndrome, patients (q1w patients): 1 | alopecia, related AE [1]: 21.7% | anemia, related AE [1]: 34.8% | decreased appetite, related AE [1]: 21.7% | diarrhea, related AE [1]: 21.7% | fatigue, related AE [1]: 30.4% | hypomagnesaemia, related AE [1]: 21.7% | nausea, related AE [1]: 47.8% | neutropenia, related AE [1]: 26.1% | vomiting, related AE [1]: 39.1% | Grade ≥3 related diarrhea (q1w patients, total): 8.7% | Grade ≥3 related hyponatraemia (q1w patients, total): 8.7% | Grade ≥3 related neutropenia (q1w patients, total): 17.4% | RP2D (q1w schedule): 1.4 mg/kg | Grade ≥3 related diarrhea, patients (q1w, at 1.4 mg/kg): 0 | Grade ≥3 related hyponatraemia, patients (q1w, at 1.4 mg/kg): 0 | Grade ≥3 related neutropenia, patients (q1w, at 1.4 mg/kg): 1 | MTD dose (q3w): 2.4 mg/kg | Alopecia (related AE), patients (q3w 0.3 mg/kg (n = 3)): 0 | Any adverse events (related), patients (q3w 0.3 mg/kg (n = 3)): 3 | Arthralgia (related AE), patients (q3w 0.3 mg/kg (n = 3)): 0 | Asthenia (related AE), patients (q3w 0.3 mg/kg (n = 3)): 0 | Decreased appetite (related AE), patients (q3w 0.3 mg/kg (n = 3)): 1 | Diarrhea (related AE), patients (q3w 0.3 mg/kg (n = 3)): 0 | Dysgeusia (related AE), patients (q3w 0.3 mg/kg (n = 3)): 0 | Fatigue (related AE), patients (q3w 0.3 mg/kg (n = 3)): 0 | Hypokalemia (related AE), patients (q3w 0.3 mg/kg (n = 3)): 0 | Hypomagnesaemia (related AE), patients (q3w 0.3 mg/kg (n = 3)): 1 | Hypophosphatemia (related AE), patients (q3w 0.3 mg/kg (n = 3)): 0 | Nausea (related AE), patients (q3w 0.3 mg/kg (n = 3)): 1 | Neutropenia (related AE), patients (q3w 0.3 mg/kg (n = 3)): 0 | Peripheral neuropathy (related AE), patients (q3w 0.3 mg/kg (n = 3)): 1
